Results on 5 proteins are retold here after PMC11343839, “Structural mechanism of proton conduction in otopetrin proton channel” (Nature Communications, 2024).

Data set [1] deals with the molecule itself. The experiment in a line: cryo-EM structure; single-particle cryo-EM of protein purified in GDN detergent (20 mM Tris, 150 mM NaCl, 0.04% GDN), 3.0 mg/mL; samples at pH 5.0 and 8.0 (CeOTOP8), pH 5.0, 7.0, 8.0 and 9.0 (mOTOP2), pH 8.0 (mOTOP2 M374W).
Data set [2] deals with the molecule itself. The experiment in a line: SEC; loss-of-function mutants of mOTOP2 purified as a stable dimer (Supplementary Fig. 10b, not shown); the general purification ends with Superose 6 10/300 GL in 20 mM Tris pH 8.0, 150 mM NaCl, 0.04% GDN.

B1: Mus musculus Otopetrin 2 (mOTOP2), wild type (natural protein)
chain: MSEELVPHPNESLPGPRASPREVWKKGGRLLSVLLAVNVLLLACTLISGGAFNKVAVYDTDVFALLTTMMLLAALWIVFYLLRTARCPDAVPYRDAHAGPIWLRGGLVLFGICTLVMDVFKTGYYSSFFECQSAIKILHPIIQAVFVIVQTYFLWISAKDCIHTHLDLTRCGLMFTLATNLAIWMAAVVDESVHQAHSYSGSHGNTSHTRLNPDSKRAGGAAEEDPCLCSTAICQIFQQGYFYLYPFNIEYSLFASTMLYVMWKNVGRLLASTHGHGHTPSRVSLFRETFFAGPVLGLLLFVVGLAVFILYEVQVSGERGHTRQALVIYYSFNIVCLGLMTLVSLSGSVIYRFDRRAMDHHKNPTRTLDVALLMGAALGQYAISYYSIVAVVVGSPRDLQGALNLSHALLMIAQHTFQNVFIIESLHRGPPGAEPREMPPKEPCQGITFANLDAIRTLPSCPPTPRLVIPNLESPQEAVAIISAPRCHWRRRCLKDISLFLLLCNVILWIMPAFGARPHFSNTVEVDFYGYSLWAAIVNICLPFGIFYRMHAVSSLLEVYVLS
notes: Otopetrin 2 (mOTOP2), Mus musculus; wild type; the AlphaFold model AF-Q80SX5-F1 was the initial model; N-terminal 10x His tag, then GFP, then a thrombin cleavage site; residues of the site may remain after digestion; also called mouse OTOP2; WT mOTOP2; source: HEK293F cells (BacMam system), purified (Ni-NTA, thrombin digestion on column, Superose 6 SEC in GDN); not shown: His10, N-terminal, …
In general, stoichiometry N refers to the number of molecules, sites or subunits per partner or assembly. Take B1: the “stoichiometry N” value in data set [1] came out at 2.

B2: mOTOP2 L30W (natural protein, Mus musculus)
chain: MSEELVPHPNESLPGPRASPREVWKKGGRWLSVLLAVNVLLLACTLISGGAFNKVAVYDTDVFALLTTMMLLAALWIVFYLLRTARCPDAVPYRDAHAGPIWLRGGLVLFGICTLVMDVFKTGYYSSFFECQSAIKILHPIIQAVFVIVQTYFLWISAKDCIHTHLDLTRCGLMFTLATNLAIWMAAVVDESVHQAHSYSGSHGNTSHTRLNPDSKRAGGAAEEDPCLCSTAICQIFQQGYFYLYPFNIEYSLFASTMLYVMWKNVGRLLASTHGHGHTPSRVSLFRETFFAGPVLGLLLFVVGLAVFILYEVQVSGERGHTRQALVIYYSFNIVCLGLMTLVSLSGSVIYRFDRRAMDHHKNPTRTLDVALLMGAALGQYAISYYSIVAVVVGSPRDLQGALNLSHALLMIAQHTFQNVFIIESLHRGPPGAEPREMPPKEPCQGITFANLDAIRTLPSCPPTPRLVIPNLESPQEAVAIISAPRCHWRRRCLKDISLFLLLCNVILWIMPAFGARPHFSNTVEVDFYGYSLWAAIVNICLPFGIFYRMHAVSSLLEVYVLS
notes: Otopetrin 2 (mOTOP2), Mus musculus, with the point mutation L30W on TM1; same construct as the wild-type channel; The general purification protocol removes His10-GFP with thrombin; also called mOTOP2 L30W loss-of-function mutant; source: HEK293F cells (pEZTBM vector, same construct as the wild type), purified
As to B2, in data set [2], the “stoichiometry N” value was 2.

B3: mOTOP2 V370W (natural protein, Mus musculus)
chain: MSEELVPHPNESLPGPRASPREVWKKGGRLLSVLLAVNVLLLACTLISGGAFNKVAVYDTDVFALLTTMMLLAALWIVFYLLRTARCPDAVPYRDAHAGPIWLRGGLVLFGICTLVMDVFKTGYYSSFFECQSAIKILHPIIQAVFVIVQTYFLWISAKDCIHTHLDLTRCGLMFTLATNLAIWMAAVVDESVHQAHSYSGSHGNTSHTRLNPDSKRAGGAAEEDPCLCSTAICQIFQQGYFYLYPFNIEYSLFASTMLYVMWKNVGRLLASTHGHGHTPSRVSLFRETFFAGPVLGLLLFVVGLAVFILYEVQVSGERGHTRQALVIYYSFNIVCLGLMTLVSLSGSVIYRFDRRAMDHHKNPTRTLDWALLMGAALGQYAISYYSIVAVVVGSPRDLQGALNLSHALLMIAQHTFQNVFIIESLHRGPPGAEPREMPPKEPCQGITFANLDAIRTLPSCPPTPRLVIPNLESPQEAVAIISAPRCHWRRRCLKDISLFLLLCNVILWIMPAFGARPHFSNTVEVDFYGYSLWAAIVNICLPFGIFYRMHAVSSLLEVYVLS
notes: Otopetrin 2 (mOTOP2), Mus musculus, with the point mutation V370W on TM9; same construct as the wild-type channel; The general purification protocol removes His10-GFP with thrombin; also called mOTOP2 V370W loss-of-function mutant; source: HEK293F cells (pEZTBM vector, same construct as the wild type), purified
In the case of B3, the “stoichiometry N” value in data set [2] was 2.

B4: mOTOP2 M374W (natural protein, Mus musculus)
chain: MSEELVPHPNESLPGPRASPREVWKKGGRLLSVLLAVNVLLLACTLISGGAFNKVAVYDTDVFALLTTMMLLAALWIVFYLLRTARCPDAVPYRDAHAGPIWLRGGLVLFGICTLVMDVFKTGYYSSFFECQSAIKILHPIIQAVFVIVQTYFLWISAKDCIHTHLDLTRCGLMFTLATNLAIWMAAVVDESVHQAHSYSGSHGNTSHTRLNPDSKRAGGAAEEDPCLCSTAICQIFQQGYFYLYPFNIEYSLFASTMLYVMWKNVGRLLASTHGHGHTPSRVSLFRETFFAGPVLGLLLFVVGLAVFILYEVQVSGERGHTRQALVIYYSFNIVCLGLMTLVSLSGSVIYRFDRRAMDHHKNPTRTLDVALLWGAALGQYAISYYSIVAVVVGSPRDLQGALNLSHALLMIAQHTFQNVFIIESLHRGPPGAEPREMPPKEPCQGITFANLDAIRTLPSCPPTPRLVIPNLESPQEAVAIISAPRCHWRRRCLKDISLFLLLCNVILWIMPAFGARPHFSNTVEVDFYGYSLWAAIVNICLPFGIFYRMHAVSSLLEVYVLS
notes: Otopetrin 2 (mOTOP2), Mus musculus, with the point mutation M374W on TM9; same construct as the wild-type channel; The general purification protocol removes His10-GFP with thrombin; also called mOTOP2 M374W loss-of-function mutant; source: HEK293F cells (pEZTBM vector, same construct as the wild type), purified
On to B4, for which the “stoichiometry N” value in data set [2] was determined as 2.

B5: Caenorhabditis elegans Otopetrin-like 8 (CeOTOP8), wild type, full length (natural protein, UniProt G5EDX5 1-619, looked up)
chain: MLMVDEQLKIGATPMYSPSHNPIVIADDMEKGGSDSDSLPSSPTHHHELYRRPWIHEPRATNFFVRLITSLYALILTIISLVVEVSPTWRTDMWLAETIFYISMYGVGILFFAYCYIFIIYPGPYNQLISVLRKYKIIKNSEVWFIMQSQHNGEGAGTLYLRLGALFFGSVGIVLFGLELFLCIENVACKKVAIAKMIVAIVFTFIQMHFIFCNSKITVNSSRKIVAFGMMHLISVNLWTWFRFVLAKQEAKAHKKAQLKQTFRKYYSSSSSSSSEEIHELISAVLNSTLNNTPATKTMEPVASRLFALEHFGDVATFLTTCIVEYSLIGAAIMFILWKSIGQNNHQQSNSGKRKVKMRIDCSSSSTGLFAGIIFLIGSLVSMGMYTIFESLRNSSGAQLVFGIVDLSLFSIALGACIIGLWRMRHLQYRLHAHGEVIDEILLIIGLIGEILYCAVGIDVFITCRRSADLTVSALPAFVFVIRMIQVVVQAAFILTTSRLRCLSKYSMKYKPGKEIITFLLVSNVTLFVFHTFEGMKSSFGFSSKAATQYNYIIYAVGPLLVFYRFHSSACLAEIWKHTYSTKSNEYDHEHMSLSDSNLTAITPISDIKEIPSPQLLKH
notes: Otopetrin-like 8 (CeOTOP8), Caenorhabditis elegans; wild-type full-length channel; the AlphaFold model AF-G5EDX5-F1 was the initial model; A thrombin cleavage site stood between the protein and the C-terminal 10x His tag; residues of the site may remain after digestion; also called WT CeOTOP8; source: HEK293F cells (BacMam system), purified (Ni-NTA, thrombin digestion on column, Superose 6 SEC in …)
Turning to B5, the “stoichiometry N” value in data set [1] came out at 2.
